# Measurements taken from PMC1289080.
# B1: sR47 mut C/D and C'/D' (structured_RNA)
# RNA: GAUGAAGAUUCUGAGCUCGGCAGGUCCUUCGGAGUUCUGAGGAUCUUGAGUGCUUCUUCACCUU
# Target: T1, L7Ae (Pyrococcus abyssi, UniProt P62008 1-123)
# Assay: EMSA
row,Binder,binding result
1,GGGACUGAGGGUGAUGACCC (structured_RNA) [sR6 2-nt spacer GG],no binding
2,GGGACUGACCAGUGAUGACCC (structured_RNA) [sR6 CCA spacer],no binding

# Target: T1, L7Ae
# Assay: EMSA
# Remark: another data set of the same source
row,Binder,binding result
1,GGGACUGAGCAUUGAUGACCC (structured_RNA) [sR6 L2],no binding
2,GGGACUUCGCAGUUCUGACCC (structured_RNA) [sR6 mut C'/D'],no binding
3,B1,no binding
4,GGGACUGACCCGUGAUGACCC (structured_RNA) [sR6 LC],no binding
